Positions count from the first letter of the chain named.
Tests used:
[1] = target: T1, recombinant mouse TIGIT IgV domain (mouse, UniProt P86176 29-145); test: ELISA on coated recombinant TIGIT IgV domain
T1 construct: Made in NS0 cells, purified on Strep-Tactin XT; Biotinylated for phage panning; also called biotinylated mouse TIGIT IgV domain
T1 sequence: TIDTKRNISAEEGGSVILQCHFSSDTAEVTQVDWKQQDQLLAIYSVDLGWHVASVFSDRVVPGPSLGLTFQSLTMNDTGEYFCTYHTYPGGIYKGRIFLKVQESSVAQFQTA
Description: To assess species cross-reactivity of anti-TIGIT antibodies 7D4, 2C9, and 3A9, ELISA binding assays to human, cynomolgus monkey, and mouse TIGIT were performed. 1 μg/ml each of human, cyno (R&D Systems, Inc., #9380-TG), and mouse TIGIT in 50 μl of DPBS were coated on 96-well plates at 4° C. for overnight. After washing the plates with phosphate-buffered saline containing 0.05% of Tween 20 (PBST), a sequential dilution of 7D4, 2C9, and 3A9 antibodies was added separately and the plates were incubated at 37° C. for 1 hour. After washing the plates three times with PBST, the plates were incubated with an anti-mouse Fey polyclonal antibody conjugated with horseradish peroxidase (HRP) at 37° C. for 1 hour. After washing the plates three times with PBST, 100 μl of 3,3′,5,5′-tetra-methylbenzidine (TMB) substrate (Thermo Fisher Scientific, #34018) were added into each well. After 5 to 10 min of color development, 50 μl of stop solution (2 N of HCl) were added into each well and plates were read by spectrophotometer at a wavelength of 450 nm.

[2] = target: T2, human TIGIT expressed on cells (TIGIT/Jurkat cells; MJ[G11] cells; PBMC T cells) (human, UniProt Q495A1 22-244); test: flow cytometry on TIGIT/Jurkat cells
T2 construct: The cell line is named under assay; also called human TIGIT-expressing Jurkat cells
T2 sequence: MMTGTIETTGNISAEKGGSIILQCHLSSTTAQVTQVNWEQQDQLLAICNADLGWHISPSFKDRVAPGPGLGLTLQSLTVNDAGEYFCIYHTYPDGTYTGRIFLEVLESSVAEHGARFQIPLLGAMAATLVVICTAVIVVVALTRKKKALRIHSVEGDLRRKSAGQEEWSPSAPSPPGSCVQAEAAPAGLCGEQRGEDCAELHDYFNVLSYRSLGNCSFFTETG
Description: Sequential dilutions of Protein A column-purified 7D4, 2C9, and 3A9 antibodies were separately incubated with 5×10⁵ of human TIGIT-expressing Jurkat cells (TIGIT/Jurkat) in 50 μl of FACS buffer (0.2% BSA in Dulbecco's phosphate-buffered saline (DPBS) containing 0.09% sodium azide) on ice for 1 hour. After washing, the cells were stained with anti-mouse IgG conjugated with PE dyes and antibody binding strength was analyzed by flow cytometry.

[3] = target: T3, TIGIT-biotin (TIGIT:CD155 Homogeneous Assay Kit, #72029) (human, UniProt Q495A1 22-141, limits assumed, biotin (site not stated)); test: AlphaLISA competition: TIGIT-biotin with antibody, then histidine-tagged CD155 as competitor
T3 construct: Kit reagent; also called human TIGIT
T3 chain: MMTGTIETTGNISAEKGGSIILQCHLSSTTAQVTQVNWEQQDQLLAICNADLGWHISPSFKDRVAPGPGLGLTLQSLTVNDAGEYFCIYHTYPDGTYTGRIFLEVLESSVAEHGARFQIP
Description: To evaluate inhibition of binding of TIGIT to CD155 by anti-TIGIT antibodies, AlphaLISA assays were performed using a TIGIT:CD155 Homogeneous Assay Kit (PBS Biosciences, #72029). Aliquots (6 μl) of solution containing TIGIT-biotin (final concentration 0.2 ng/μl) and 4-fold serial dilution of the test antibodies (final volume 2 μl) were added into a 384-well plate. The plates were covered with a lid and incubated at room temperature for 30 min. Then, 2 μl of histidine-tagged CD155 were added (final concentration 0.05 ng/μl) into each well and incubated at room temperature for 60 min. Finally, aliquots (5 μl) of streptavidin-conjugated donor beads (final concentration 10 μg/ml) and 5 μl of anti-His tag acceptor beads (final concentration 20 μg/ml) were added and the plate was incubated at room temperature for 30 min in the dark. AlphaLISA signals were measured on an EnSpire Alpha 2390 (Perkin-Elmer Life Sciences). 15A6 (U.S. Pat. No. 10,189,902) and MBSA43 (Thermo Fisher Scientific, #16-9500-82) were used as reference antibodies.
These antibodies were selected for further functional studies.

[4] = target: T2, human TIGIT expressed on cells …; test: flow cytometry competition on TIGIT/Jurkat cells; competitor DyLight 650-CD155-human Fc at 1 µg/ml
From the text: (§1) Anti-TIGIT antibodies, including hz7D4, and reference antibodies (15A6 and 1D3) were used to compete with CD155 for binding to cells expressing human TIGIT. MJ[G11] (American Type Culture Collection (ATCC), CRL-8294) is a CD3+CD4+T lymphoma cell line carrying human T cell leukemia virus (HTLV-I). MJ[G11] cells were characterized by immunostaining with regulatory T cell phenotypic antibody markers, including CD4, CD25, CD127, and FoxP3, and found to be a regulatory T cell-like cell line (FIG. 9A). Moreover, MJ[G11] cells express human TIGIT constitutively, as shown by immunostaining with PE-conjugated anti-human TIGIT, MBSA43 antibody (FIG. 9B). A sequential 3-fold dilution of anti-TIGIT antibodies was added to 5×10⁵ of human TIGIT-expressing Jurkat cells or 3×10⁵ of MJ[G11] cells in 50 μl FACS buffer (0.2% BSA in DPBS containing 0.09% sodium azide) and incubated on ice for 30 min. Then, 10 μl of DyLight 650-conjugated CD155-human Fc fusion protein were added to the cells, to reach a final concentration of 1 μg/ml for human TIGIT-Jurkat cells and 1.5 μg/ml for MJ[G11] cells, and incubated for 30 min at 4° C. Cells were washed and analyzed by a FACSCalibur cytometer (Becton Dickinson). IC₅₀ values were calculated based on normalized median fluorescence intensity (MFI) values. […]

[5] = target: T2, human TIGIT expressed on cells …; test: flow cytometry competition on MJ[G11] cells; competitor DyLight 650-CD155-human Fc at 1.5 µg/ml
From the text: as §1

[6] = target: T4, recombinant human TIGIT IgV domain (human, UniProt Q495A1 22-141, limits assumed); test: phage display panning on biotinylated human TIGIT IgV domain
T4 construct: Made in NS0 or Expi293F cells, purified on Strep-Tactin XT; Biotinylated for phage panning; also called human TIGIT IgV protein; native (Nat) form human TIGIT protein
T4 chain: T3 chain
Description: (§2) The phages were captured by incubation with 50 μl of M280 streptavidin magnetic beads (Thermo Fisher Scientific) for 15 min. Non-specific phages were eliminated by ten washes with PBS/0.1% Tween-20, followed by 10 washes with PBS for 5 min each. Bound phages were eluted with 0.1 M glycine (pH 2.0), neutralized with 1 M Tris-HCl (pH 8.0) and re-infected into log-phase TG1 cells. In the second panning round, phages (10⁹ cfu) were used against 0.1 nM of the biotinylated cyno TIGIT IgV domain.
(§3) The nucleotide sequences of the phage clones that bind to both human and cyno TIGIT IgV domains were determined. All heavy chain CDR3 (HCDR3) clones contain the wild type HCDR3 amino acid sequence of […] (SEQ ID NO: 3). Two light chain CDR3 (LCDR3) clones screened by the light chain library, designated 1A11 and 1E3, contain LCDR3 amino acid sequences of […] (SEQ ID NO: 23) and […] (SEQ ID NO: 24), respectively.

cyno TIGIT IgV domain = target: T5, cyno TIGIT IgV domain (cynomolgus monkey); test: phage display panning on biotinylated cyno TIGIT IgV domain
T5 construct: Biotinylated for phage panning; also called biotinylated cyno TIGIT IgV domain; cynomolgus monkey TIGIT
Description: as §2, §3

T5 sequence (chain, as listed by the source limits assumed): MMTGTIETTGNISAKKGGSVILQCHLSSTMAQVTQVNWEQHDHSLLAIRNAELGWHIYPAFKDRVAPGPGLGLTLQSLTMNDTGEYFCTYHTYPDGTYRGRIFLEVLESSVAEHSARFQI

B1: 7D4 (antibody, V domains shown)
VH: QVQLKHSGAELVRPGTSVKMSCKASGYTFTNYWIGWAKQRPGHGLEWIGDIYPGSSFTNSNEKFKGKATLTADKSSSTAYMQFSSLTSEDSAIYYCAKLGRGYWYFDVWGTGTSVTVSA
VL: DIVLTQSPAIMSASLGEEITLTCSASSSVSYIHWYQQKSGTSPKLLIYTTSNLASGVPSRFSGSGSGTFYSLTISSVEAEDAADYYCHQWSRYPTFGGGTKLEIK
notes: Mouse monoclonal antibody from hybridoma clone 7D4, Protein A purified; also called anti-TIGIT monoclonal antibody 7D4; parental mouse 7D4 antibody
[1]
  EC50: 10.5 nM
[2]
  Kd: 0.27 nM
[3]
  IC50: 0.32 nM

B2: hz7D4 hIgG1 (antibody, V domains shown)
VH: EVQLVQSGGGLVKPGGSLRLSCAASGYTFTNYWIGWVRQTPGKGLEWVGDIYPGSSFTNSNEKFKGRFTISADKSKNTAYLQMNSLRAEDTAVYYCARLGRGYWYFDVWGQGTLVTVSS
VL: DIVLTQSPATLSASLGERATLSCSASSSVSYIHWYQQKPGQAPKLLIYTTSNLASGVPSRFSGSGSGTDFTLTISSLEAEDFATYYCHQWSRYPTFGGGTKLEIK
notes: Human IgG1 (vector pFUSE-CHIg-hIG1) with human kappa constant region, made in CHO-S cells; also called humanized 7D4; hz7D4 human IgG1
[4]
  IC50: 0.2 nM
[5]
  IC50: 0.3 nM

B3: 1A11 scFv phage clone (scFv, V domains shown)
VH: B2 VH
VL: B2 VL with H88Q, Q89L, W90F, S91R, R92S, Y93G, P94S, T95A
[6]
  binding result: binds
Cyno TIGIT IgV domain
  binding result: binds

Reference: patent publication US20230416362A1 (INDUSTRIAL TECHNOLOGY RESEARCH INSTITUTE, published 2023)
